This test addresses T1, wild-type Met1-linked di-ubiquitin (UniProt P0CG48 1-76; P0CG48 1-76).
T1 construct: ubiquitin, first moiety of the linear fusion (residues 1-76 of the di-ubiquitin); ubiquitin, second moiety of the linear fusion (residues 77-152 of the di-ubiquitin); In the crystal each di-ubiquitin bridges two SnOTU molecules: residues 1-76 lie in the S1' site of one SnOTU and residues 77-152 in the S1 site of the other; also called linear di-ubiquitin; M1-linked di-ubiquitin; source: expressed …
The test can be described thus: crystal structure; catalytic inactive SnOTU 1-255 and linear di-ubiquitin mixed in a 1:1.1 ratio; sitting drop vapor diffusion, 4 °C; 0.25 M magnesium formate, 20% w/v PEG 3350, 0.02 M EDTA disodium salt. To be noted: both partners purified.

B1: catalytically inactivated (C82A) fragment SnOTU 1-255 (domain or fragment)
chain: MSLPVKERPDAIYTFEGKTYENTSFSKTGIPIVGQPLKMEAYVHKEYTHVTSLEGKRFKSQLEEAAKIYGEQLHEIQGDGNALTTAFATSFLYLLNGNATLIATFDNILIGLDAHKNIPPVRQTIEKLKVKNDLELKQILASNETMFAFSSVIRHLARQKLPELGEPFSLLIDEMVPEEDGKEIEIACIGGLCQLLNICADVIYLRKDYDTFKIERYPNETGKPDLVILRKAAHFLSIILDSKKSIEERTNELGK
notes: resolved from residues 2 to 242 in PDB 8CMR; Amplified from S. negevensis genomic DNA (DSM No.27360), cloned into pOPIN-S; source: E. coli Rosetta (DE3) pLysS, purified (HisTrap FF, tag removal, SEC); not shown: His6, N-terminal, cleaved; Smt3, N-terminal, cleaved
For the molecule B1, the binding result is “binds”.

Values taken from article PMC10643670, “Functional and structural diversity in deubiquitinases of the Chlamydia-like bacterium Simkania negevensis” (Nature Communications, 2023).
